In patent US20100249184A1, “INDUCTION AND/OR MAINTENANCE OF TUMOR DORMANCY BY DISRUPTION OF UROKINASE PLASMINOGEN ACTIVATOR RECEPTOR-INTEGRIN INTERACTION” (MOUNT SINAI SCHOOL OF MEDICINE, priority 2007, published 2010):
Entries after “also recorded” stand apart in the source; their conditions may differ.

Experiments:
[1] = molecular target: T1, purified human α5β1-integrin (Homo sapiens, UniProt P05556+P08648); experiment: Solid phase dot-ELISA: α5β1-integrin binding to immobilized uPAR peptides and suPAR; conditions: for α5β1-integrin binding to immobilized peptide: peptide immobilized on nitrocellulose, α5β1-integrin 750 ng/ml
T1 construct: purchased Chemicon International (Temecula, Calif.)
T1 sequence (P08648 42-894 limits assumed): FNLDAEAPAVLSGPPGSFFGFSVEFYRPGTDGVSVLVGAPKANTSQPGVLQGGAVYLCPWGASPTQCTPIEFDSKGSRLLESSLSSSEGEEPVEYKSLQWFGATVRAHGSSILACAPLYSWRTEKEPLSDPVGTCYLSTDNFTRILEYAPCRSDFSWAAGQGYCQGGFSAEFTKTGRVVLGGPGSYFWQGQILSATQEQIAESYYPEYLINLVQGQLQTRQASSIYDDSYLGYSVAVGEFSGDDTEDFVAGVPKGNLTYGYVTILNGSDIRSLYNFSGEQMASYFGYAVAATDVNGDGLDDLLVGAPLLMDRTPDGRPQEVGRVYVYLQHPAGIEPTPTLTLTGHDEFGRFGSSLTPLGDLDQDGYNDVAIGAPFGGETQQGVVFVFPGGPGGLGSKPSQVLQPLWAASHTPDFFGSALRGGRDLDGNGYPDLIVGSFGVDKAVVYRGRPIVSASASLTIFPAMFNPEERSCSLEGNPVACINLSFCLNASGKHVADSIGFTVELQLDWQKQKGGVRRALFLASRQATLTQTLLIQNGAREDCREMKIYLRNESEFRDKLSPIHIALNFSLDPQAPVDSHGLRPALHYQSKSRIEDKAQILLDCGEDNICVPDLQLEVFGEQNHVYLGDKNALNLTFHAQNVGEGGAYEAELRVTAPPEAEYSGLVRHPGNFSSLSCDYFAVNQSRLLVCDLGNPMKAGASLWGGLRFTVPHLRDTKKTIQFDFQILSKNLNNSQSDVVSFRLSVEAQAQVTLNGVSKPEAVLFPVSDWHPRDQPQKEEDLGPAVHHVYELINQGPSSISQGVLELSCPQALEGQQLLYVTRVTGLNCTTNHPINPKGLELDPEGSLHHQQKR
T1 sequence (P08648 895-1049 limits assumed): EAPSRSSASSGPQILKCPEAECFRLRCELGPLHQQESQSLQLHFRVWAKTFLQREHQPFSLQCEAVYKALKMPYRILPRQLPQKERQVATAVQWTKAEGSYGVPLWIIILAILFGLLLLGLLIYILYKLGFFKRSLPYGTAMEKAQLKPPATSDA
T1 sequence (P05556 21-798): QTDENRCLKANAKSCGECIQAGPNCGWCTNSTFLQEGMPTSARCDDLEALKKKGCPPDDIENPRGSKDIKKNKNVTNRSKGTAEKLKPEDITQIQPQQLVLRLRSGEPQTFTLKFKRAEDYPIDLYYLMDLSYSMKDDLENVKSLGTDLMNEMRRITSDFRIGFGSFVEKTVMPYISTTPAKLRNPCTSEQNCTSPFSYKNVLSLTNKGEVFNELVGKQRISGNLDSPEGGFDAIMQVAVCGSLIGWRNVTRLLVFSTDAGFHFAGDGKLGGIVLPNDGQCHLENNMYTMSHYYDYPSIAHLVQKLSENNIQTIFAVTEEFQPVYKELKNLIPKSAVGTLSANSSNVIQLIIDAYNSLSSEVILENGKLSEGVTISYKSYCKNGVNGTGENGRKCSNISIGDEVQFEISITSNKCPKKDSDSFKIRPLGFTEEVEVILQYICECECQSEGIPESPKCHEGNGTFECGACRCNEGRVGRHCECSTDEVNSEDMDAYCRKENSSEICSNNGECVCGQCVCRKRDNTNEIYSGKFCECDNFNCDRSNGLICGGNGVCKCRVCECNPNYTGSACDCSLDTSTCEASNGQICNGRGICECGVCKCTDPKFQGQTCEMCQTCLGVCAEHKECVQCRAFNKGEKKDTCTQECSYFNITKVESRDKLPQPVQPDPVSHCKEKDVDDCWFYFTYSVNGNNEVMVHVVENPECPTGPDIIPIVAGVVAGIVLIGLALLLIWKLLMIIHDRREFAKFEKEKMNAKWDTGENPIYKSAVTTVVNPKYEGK
Protocol: FIGS. 1A-H show the interaction between α5β1-integrin and immobilized uPAR and uPAR-derived synthetic peptides through solid-phase dot-ELISA. […] Bound integrin was detected with anti-α5 integrin antibody followed by goat anti-rabbit IgG (H+L) HRP conjugated secondary antibody and developed with enhanced chemiluminescence (“ECL”). FIG. 1B is a graph showing that binding of integrin to suPAR is saturable. SuPAR (1.5 μg) was immobilized on nitrocellulose membrane in triplicates, incubated with 0, 0.1, 0.5, 1, 2, and 4 μg/ml of α5β1-integrin and tested for integrin binding as in FIG. 1A. The dots were scanned with NIH Image. Mean and SE are shown. […] Peptides representing regions located in each of the three uPAR-domains were immobilized, incubated with α5β1-integrin, and analyzed as in FIG. 1A. Only peptide 240-248 binds α5β1-integrin. FIG. 1D is a graph showing that peptide 240-248 inhibits integrin binding to suPAR. The α5β1-integrin (750 ng/ml) was pre-incubated for 15 min at room temperature with 100 fold molar excess of 240-248 or 17-24 peptides, or with no peptide (Control) and the mixtures were applied to immobilized suPAR (1.5 μg), 2 dots per mixture, and developed as in FIG. 1A. The dots were scanned with NIH Image. The results (bars) show % of control, the lines show range. FIG. 1E is a graph showing binding of α5β1- and α3β1-integrin to suPAR and peptide 240-248. Dot-ELISA was performed in duplicate as in FIG. 1A, except that purified α5β1-integrin and α3β1-integrin (750 ng/ml) were used. Bound integrins were detected with the appropriate previously titrated antibodies followed by goat anti-rabbit IgG (H+L) HRP conjugated secondary antibody and detection with ECL. The graph represents the mean and range of two values: α5β1-integrin binding to peptide 240-248 (▪) or SuPAR (▴); α3β1-integrin binding to peptide 240-248 ([…]) and SuPAR (x). […] Peptide 240-248 (domain III), 17-24 (domain I), and the S245A mutant of peptide 240-248 were immobilized and tested for integrin binding as in FIG. 1A. FIGS. 1G-H show the crystal structure of human uPAR shown as a surface representation. The three individual domains of uPAR in FIG. 1G are indicated as follows: D1 is on the right side, DII is on the top of the model, and Diii is on the left of the model. In FIG. 1H, the order of the domains is inversed. […] The location of the COOH-terminal in uPAR domain III harboring the GPI-anchor is indicated by the arrow (FIG. 1H). FIGS. 1G-H were created by the program PyMol (DeLano Scientific) using the coordinates 1YWH.
FIGS. 2A-B show solid phase dot-ELISA of suPAR. […] Binding was detected as in FIG. 1A and the dots were scanned with NIH Image. Mean of the two-scanned value for each suPAR concentration are shown in the bottom panel. Mutation of residues in the 239-249 sequence reduced the integrin binding by ˜50 to 94%. suPAR^E33A (▪), suPAR^wt (▴), suPAR^R239A (♦), suPAR^H249A (x), suPAR^Q248A (∘), suPAR^M246A ([…]), suPAR^S245A (□).
Synthetic uPAR-derived peptides and mutant proteins were diluted to 0.5, 1, and 2 μg/100 μl of PBS. […] The strips, pinned to the bottom of a plastic box, were washed with TBS with 0.1% Tween 20, overlaid with 500 μl of rabbit anti-integrin α5 polyclonal antibody (1:650) for 1 hr at RT, washed with TBST twice, incubated with goat anti-rabbit IgG (H+L) HRP conjugated secondary antibody (1:2000) for 1 hr, washed 3 times with TBST, and developed with ECL. The dots were scanned with NIH image.

[2] = molecular target: T2, immobilized pro-uPA^S356A (Homo sapiens, UniProt P00749, S376A); experiment: Kinetics of pro-uPA/uPAR interaction by surface plasmon resonance; format: binding; conditions: soluble uPAR (residues 1-283), 20° C.
T2 construct: Coupling of pro-uPA^S356A to the sensor chip by EDC/NHS

[3] = test system: T-HEp3 cells; experiment: Fibronectin-fibrils disruption; format: cell-based, human; conditions: cells displaying fibronectin fibrils; control had 90.2% fibril positive cells; compounds 5 and 10 μM, 16 h
Protocol: To test the effects of fibronectin-fibril disruption by the compounds, T-HEp3 cells were incubated in 5% fibronectin-depleted fetal bovine serum (FBS)/DMEM with 0, 2.5, 5, 7, and 10 μM of the compounds or anti-uPAR antibody (R2, 20 μg/ml) or anti-α5β1 antibody (BIIG2, 20 μg/ml) or MEK inhibitor (PD98059, 25 μM) as a […] at room temperature for 15 min prior to plating them in chambered slides. […] The cells were fixed with 3% paraformaldehyde for 20 min and the bound fibronectin was detected using rabbit anti-human fibronectin antibody and with FITC-conjugated secondary antibody.
Compounds MS0012479 and MS0019128 and their analogs were tested for fibronectin-fibril disruption. […] A total of 700 to 1150 cells were counted in 5 individual fields. Cells displaying fibronectin fibrils were then counted and expressed as a percentage of total cells. The mean obtained from the compound-treated cells was expressed as a percentage of control. The control had 90.2% of fibril positive cells (Table 2).

[4] = test system: T-HEp3 cells; experiment: Screening of compounds by luciferase assay (Luc-Elk activity as readout for ERK); format: cell-based, human; conditions: 5 μM compound, 16 h
Protocol: To test the effect of uPAR-integrin disruption by uPAR-docked compounds on ERK activation, T-HEp3 cells were transiently co-transfected with pFA-Elk1-fusion plasmid and pD700-luciferase plasmid in a 96-well plate. These plasmids report the state of ERK activation through luciferase activity level. After 24 h of transfection, cells were serum starved for 5 h and incubated with PD98059 (Calbiochem, San Diego, Calif.) (25 and 50 μM) and 5 μM of each compound prepared in DMEM. Following 16 h of incubation with compounds, the cells were lysed directly in Steady glo-luciferase lysis buffer (1:1) from Promega and read on Tecan Safire2™ using Magellan 6.0 software. Histographs representing the percent inhibition of Luc-Elk activity as readout for ERK reduction were generated.

[5] = molecular target: α5β1-integrin endogenous on HEK293, D-HEp3 and T-HEp3 cells (human) (UniProt P08648); experiment: cell-based or functional assay
α5β1-integrin endogenous on HEK293, D-HEp3 and T-HEp3 cells (human), sequence (P08648 42-1049, chain 1 of 2): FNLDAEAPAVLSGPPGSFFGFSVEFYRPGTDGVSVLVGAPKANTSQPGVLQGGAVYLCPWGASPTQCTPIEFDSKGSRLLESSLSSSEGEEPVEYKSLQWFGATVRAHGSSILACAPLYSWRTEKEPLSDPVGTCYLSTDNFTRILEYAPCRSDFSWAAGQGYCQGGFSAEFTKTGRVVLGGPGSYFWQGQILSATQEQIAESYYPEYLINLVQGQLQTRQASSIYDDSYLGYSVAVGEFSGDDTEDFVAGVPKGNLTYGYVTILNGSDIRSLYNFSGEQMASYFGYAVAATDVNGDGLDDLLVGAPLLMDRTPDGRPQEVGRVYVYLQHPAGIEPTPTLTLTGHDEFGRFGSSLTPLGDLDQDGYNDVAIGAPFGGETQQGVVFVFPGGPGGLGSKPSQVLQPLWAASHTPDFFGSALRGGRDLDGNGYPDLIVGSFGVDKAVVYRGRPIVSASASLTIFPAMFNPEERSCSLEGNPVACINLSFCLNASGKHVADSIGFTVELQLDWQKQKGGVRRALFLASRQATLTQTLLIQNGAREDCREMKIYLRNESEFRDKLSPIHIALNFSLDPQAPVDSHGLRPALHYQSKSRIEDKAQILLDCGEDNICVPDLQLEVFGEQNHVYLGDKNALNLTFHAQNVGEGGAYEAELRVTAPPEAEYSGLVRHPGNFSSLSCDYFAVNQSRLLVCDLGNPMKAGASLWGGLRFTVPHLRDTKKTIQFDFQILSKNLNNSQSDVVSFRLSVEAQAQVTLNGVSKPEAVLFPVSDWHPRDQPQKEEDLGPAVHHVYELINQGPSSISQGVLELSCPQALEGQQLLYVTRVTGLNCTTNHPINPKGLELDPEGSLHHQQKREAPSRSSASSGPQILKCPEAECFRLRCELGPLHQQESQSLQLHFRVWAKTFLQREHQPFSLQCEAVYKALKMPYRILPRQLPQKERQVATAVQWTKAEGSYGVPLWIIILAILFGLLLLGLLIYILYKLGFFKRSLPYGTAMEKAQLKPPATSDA
α5β1-integrin endogenous on HEK293, D-HEp3 and T-HEp3 cells (human), sequence (P05556 21-798, chain 2 of 2, further chain): as the sequence (P05556 21-798) above

[6] = molecular target: T3, β1-integrin (Homo sapiens, UniProt P05556); experiment: Detection of active β1 integrin by FACS (HUTS-4 antibody); format: cell-based; conditions: vector transfected HEK293 cells; 1 mM MnCl2; untreated 50.9%
T3 construct: endogenous in cells; host or cells: HEK293 cells (ATCC), transiently transfected with pcDNA3.1 vector, uPAR^wt or uPAR^S245A
T3 sequence (P05556 21-798): as above
T3 sequence (P08648 42-894 partner limits assumed): as the sequence (P08648 42-894 limits assumed) above
T3 sequence (P08648 895-1049 partner limits assumed): as the sequence (P08648 895-1049 limits assumed) above
Protocol: FIGS. 3A-C illustrate that […] expressed in cells has reduced ability to activate α5β1-integrin. […] HEK293 cells were transfected with pcDNA3.1 (vector), uPAR^wt, or uPAR^S245A and used 48 hrs later. Vector-transfected cells incubated with medium alone or with medium with 1 mM MnCl2, followed by HUTS-4 and uPAR-transfected cells (uPAR^wt and uPAR^S245A) incubated with HUTS-4 or isotype matched Ig (IgG2b) were then incubated with secondary rabbit-anti mouse IgG coupled to Alexa 488. uPAR expression was detected using anti-uPAR antibody (R2). In the upper panels, the results are plotted as number of events vs. fluorescence intensity. The numbers indicate percent of total population above the median fluorescence intensity determined in vector-transfected cells. The lower panel relates to overlay of uPAR in uPAR^wt (black line) and uPAR^S245A (grey line) transfected cells. […] Cell-bound fibronectin was detected by immunofluorescence 48 hrs after transfection. […] HEK293 cells plated in 60 mm dishes were transfected and treated as in FIG. 3B, and the DOC-insoluble fibronectin was analyzed by 6% PAGE and Western blot under non-reducing conditions. […]
HEK293 cells were transiently transfected with pcDNA3.1, uPAR^wt, and uPAR^S245. […] Finally, cells were washed and suspended in 400 μl of FACS buffer and analyzed in FACS Canto (Becton Dickinson, Calif.) using FACSDiva software. […]

[7] = molecular target: endogenous β1 integrin on HEK293 cells (active state) (human) (UniProt P05556); experiment: flow cytometry, HEK293 cells expressing uPAR^wt
endogenous β1 integrin on HEK293 cells (active state) (human), sequence (P05556 21-798): as the sequence (P05556 21-798) above

[8] = molecular target: endogenous β1 integrin on HEK293 cells (active state) (human) (UniProt P05556); experiment: flow cytometry, HEK293 cells expressing uPAR^S245A
[9] = molecular target: endogenous β1 integrin on HEK293 cells (active state) (human) (UniProt P05556); experiment: flow cytometry, vector-transfected HEK293 cells treated with Mn++ (1 mM MnCl2)
[10] = molecular target: endogenous β1 integrin on HEK293 cells (active state) (human) (UniProt P05556); experiment: flow cytometry, vector-transfected HEK293 cells, medium alone

## 66-74: synthetic uPAR-derived peptide, domain I 66-74: LTEVVCGLD (SEQ ID NO:6)
[1]
  α5β1-integrin binding to immobilized peptide: no binding

## uPAR mutant E33A: purified soluble uPAR (residues 1-283) with single amino acid mutation E33A in domain I
[1]; suPAR 0.5, 1.0, 2.0 μg immobilized, integrin 750 ng/ml
  α5β1-integrin binding of full-length recombinant suPAR with single amino acid mutation: no effect
[2]
  koff: 2.19 10^−4 S^−1
  kon: 2.52 10^5 m^−1 S^−1

## 108-118: synthetic uPAR-derived peptide, domain II 108-118: GRHQSLQCRSP (SEQ ID NO:8)
[1]
  α5β1-integrin binding to immobilized peptide: no binding

## uPAR mutant L66A: soluble uPAR single site mutant L66A, control known to affect uPA-uPAR interaction
[2]
  koff: 10.6 10^−4 S^−1
  kon: 2.26 10^5 m^−1 S^−1

## N=C(N/N=C\c1cccc(O)c1)c1ccccn1 [MS0019126]
[3]
  Quantification (% of control): 66.0 % of control
[4]
  ERK inhibitory activity: very strong; also recorded: showed ERK inhibitory activity

## BIIG2 (α5β1-integrin function blocking antibody)
[5]
  fibronectin-fibril positive T-HEp3 cells, % of control: 24.1 % of control

## 84-95: synthetic uPAR-derived peptide 84-95: AVTYSRSRYLEC (SEQ ID NO:7)
[1]
  α5β1-integrin binding to immobilized peptide: no binding

## [Mn+2] [Mn^++]
[6]
  population with fluorescence above the median (HUTS-4): 86.2%

## uPAR mutant H249A: purified soluble uPAR single amino acid mutant H249A
[2]
  koff: 1.92 10^−4 S^−1
  kon: 3.84 10^5 m^−1 S^−1

## uPAR mutant R239A: purified soluble uPAR single amino acid mutant R239A
[2]
  koff: 1.48 10^−4 S^−1
  kon: 2.33 10^5 m^−1 S^−1

## HUTS-4 antibody
[7]
  % of population with fluorescence intensity above the median: 74.4%
[8]
  % of population with fluorescence intensity above the median: 44.6%
[9]
  % of population with fluorescence intensity above the median: 86.2%
[10]
  % of population with fluorescence intensity above the median: 50.9%
